From FireProtDB (doi:10.1002/pro.5560041213) come the findings set out here.

B1: High-potential iron-sulfur protein isozyme 1, P04168 (parent)
chain: EPRAEDGHAHDYVNEAADASGHPRYQEGQLCENCAFWGEAVQDGWGRCTHPDFDEVLVKAEGWCSVYAPAS

This series covers variants of B1. As to conditions: Halorhodospira halophila, Thermal, DSC, reversible: yes, structure 2HIP, whole UniProt chain shown.

A word on the Tm: it is the temperature at which the thermal transition is half complete. As to Y12F, the Tm is 54.4 °C (pH 9, TAPS 20 mM); 54.2 °C (pH 10, CAPS 20 mM); 37.1 °C (pH 10.8, CHES 20 mM).
For the variant Y12H, the midpoint of thermal melting (Tm) stood at 42.2 °C (pH 7, MOPS 20 mM) and 39 °C (pH 9, TAPS 20 mM).
As for Y12W, the Tm (pH 7, MOPS 20 mM) worked out at 37.4 °C.
